According to patent publication US20230181719A1, “NGR CONJUGATES AND USES THEREOF” (OSPEDALE SAN RAFFAELE S.R.L., priority 2020, published 2023):
Where two headings read alike, the source gives them in different places. Positions of bridges follow the written chain, without caps; N, C: chain ends. No end group written: not given here.

Columns and labels:
RMA-T lymphoma = format: in vivo, mice
Method: RMA-T tumor-bearing mice (6 per group) were treated 11 days after tumor implantation with 100 pg of S-NGR-hTNF (i.p.). Two hours later, the mice were injected (i.p.) with 50 µg of melphalan (generic preparation of melphalan, Tillomed).
B) Kaplan-Maier curves of vehicle, melphalan alone and in combination with S-NGR-hTNF.
C) Animal body weight change (mean ± SE, 6 mice per group). Arrows: pharmacological treatment.
Inventors have shown previously that low-dose murine S-NGR-TNF (100 pg) can enhance the antitumor activity of melphalan, an anticancer alkylating agent, in a murine lymphoma model (Corti et al., 2020). To assess whether S-NGR-hTNF can also synergize with melphalan, inventors performed similar experiments using the RMA-T lymphoma model. As expected, administration of melphalan (50 µg) in combination with S-NGR-hTNF (100 pg) induced stronger antitumor effects than melphalan alone (FIGS. 21A-B).

[1] = buffer; cited from earlier work
αvβ3 = αvβ3 (Homo sapiens, UniProt P05106+P06756); details: cited from earlier work
[2] = test system: malignant pleural mesothelioma (MPM); details: cited from earlier work
[3] = test system: primary central nervous system lymphoma (PCNSL); details: with R-CHOP; cited from earlier work
[4] = test system: endothelial EA.hy926 cells; test: EA.hy926 endothelial cell adhesion assay on protein-coated microtiterplates; format: cell-based; details: plates coated in PBS, no forced deamidation
Method: FIG. 12. […] A) Adhesion of endothelial EA.hy926 cells to 96-wells microtiterplates coated with different amounts of murine TNF, NGR-TNF and S-NGR-TNF in 150 mM sodium chloride, 50 mM sodium phosphate buffer, pH 7.4 (PBS) (16 h). Each well was blocked with 2% BSA in PBS containing calcium chloride and magnesium chloride (DPBS, 30 min), seeded with 40.000 endothelial EA.hy926 cells in DPBS supplemented with 0.1% BSA (DPBS-B), and left to incubate for 2 h at 37° C., 5% CO2. After washing with DMEM-B, adherent cells were stained with crystal violet and quantified by spectrophotometric measurements at 570 nm. B) Microtiterplates pre-coated with 1 µg/ml of murine NGR-TNF or S-NGR-TNF in PBS (for 16 h) were incubated 0.1 M ammonium bicarbonate buffer, pH 8.5 (Ambic) at 37° C. for the indicated time to promote NGR deamidation. EA.hy926 cell adhesion assay was then performed as described above.
This behavior likely reflects a further improvement in the CNGRCG (SEQ ID NO: 1) stability when fused to TNF.

WEHI-164 fibrosarcoma = test: Low-dose treatment in subcutaneous WEHI-164 fibrosarcoma murine model; format: in vivo; details: 25 or 50 pg, i.p.
Method: FIG. 14. […] Balb/c mice (6-7 weeks old, weighing 18-20 g) were injected, s.c., with 1.5×10^6 WEHI-164 cells in the left flank and treated 5 days after tumor implantation (i.p.) with 25 or 50 pg of murine NGR-TNF or S-NGR-TNF in 0.9% sodium chloride, containing 100 µg/ml endotoxin-free human serum albumin (arrows). A) Tumor volumes after treatment (mean±SE, 6 mice per group). B) Tumor weight at day 15 (cumulative data of the two groups treated with 25 and 50 pg of drugs). *, P<0.05, **P<0.01 by unpaired t test of the area under the curve for each tumor (GraphPad Prism software).
To assess whether the addition of the Ser residue to NGR-TNF might affect its anti-tumor activity at low dose, inventors then analyzed the therapeutic activity of NGR-TNF and S-NGR-TNF (25 or 50 pg, i.p.) using the subcutaneous WEHI-164 fibrosarcoma murine model.

L-M cells = test: LM-cells cytolytic assay (MTT); format: cell-based; details: actinomycin D, 20 h, murine proteins
Description: FIG. 8. Biochemical and biological characterization of murine S-NGR-TNF and NGR-TNF. A) SDS-PAGE under reducing (βMe +) and non-reducing conditions (βMe -) of murine S-NGR-TNF, NGR-TNF and TNF. Arrows: bands corresponding to monomeric subunits (mon) and reducible dimers (dim). B) Representative mass spectra of murine NGR-TNF, TNF and S-NGR-TNF as determined by a Q Exactive HF mass spectrometer. Expected average masses are shown. C) Cytotoxic activity of TNF, NGR-TNF and S-NGR-TNF against L-M cells. L-M cells were incubated in DMEM medium supplemented with 2 mM glutamine, 100 U/ml penicillin, 100 µg/ml streptomycin, 0.25 µg/ml amphotericin-B, 10% fetal bovine serum, 2 µg/ml actinomycin D and TNF, NGR-TNF or S-NGR-TNF at the indicated doses (20 h at 37° C., 5% CO2). Cell viability was quantified by standard 3-(4,5-dimethylthiazol-2-yl)-2,5-diphenyltetrazolium bromide (MTT) assay. D) Binding of TNF, NGR-TNF and S-NGR-TNF to sTNF-R1 (Etanercept). Microtiterplates were precoated with or without the indicated amount of sTNF-R1 (for 16 h), washed with PBS, blocked with PBS containing 3% milk, 1% BSA (binding buffer, 1 h) and incubated with the indicated amounts of TNF, NGR-TNF or S-NGR-TNF diluted in binding buffer (for 1.5 h). The binding of each protein to sTNF-R1 was then detected using a polyclonal anti-murine TNF (IP301, 5 µg/ml in binding buffer, 1 h) followed by a polyclonal goat anti-rabbit antibody conjugated with horseradish peroxidase (1:1000 in binding buffer, 1 h) and o-phenylendiammine as chromogenic substrate.
To assess whether the addition of a serine residue to NGR-TNF affects its capability to recognize the TNF receptors and, consequently, its biological activity, inventors then analyzed the cytotoxic activity of TNF, NGR-TNF and S-NGR-TNF in the LM-cells cytolytic assay.

RMA lymphoma = format: in vivo, mice; details: 100 pg i.p., melphalan two hours later
Method: FIG. 15. […] C57BL/6 mice (6-7 weeks old, weighing 18-20 g) were challenged with subcutaneous injection in the left flank of 7×10^4 RMA cells. Mice bearing RMA lymphomas (6 per group) were treated 10-11 days (after tumor implantation with 100 pg of murine NGR-TNF or S-NGR-TNF (i.p.). Two hours later, the mice were injected with the indicated dose of melphalan (i.p.). All proteins were diluted with 0.9% sodium chloride, containing 100 µg/ml endotoxin-free human albumin. Tumor growth was monitored daily by measuring the tumors with calipers. A-B) Tumor volume change of two independent experiments are shown (mean±SE). […] C) Tumor bearing-animals were treated at day 10 after tumor implantation as indicated above using the indicated dose of S-NGR-TNF and the generic preparation of melphalan (Melphalan-Tillomed, from Tillomed Italia). RMA tumor weight at day 20 are shown (mean±SE). *, P<0.05, **P<0.01 by unpaired t test analysis with the GraphPad Prism software.
Effect of melphalan alone or in combination with low-dose murine S-NGR-TNF on the body weight and tumor growth of RMA-T lymphoma-bearing mice. Six tumor-bearing mice were injected with the indicated doses of S-NGR-TNF (i.p) and, two hours later, with the generic preparation of melphalan (Melphalan-Tillomed) (i.p.).
Finally, to assess whether low-dose S-NGR-TNF can exert synergistic effects with chemotherapy, as previously observed for NGR-TNF, inventors performed in vivo experiments with S-NGR-TNF and NGR-TNF in combination with melphalan, a chemotherapeutic drug, using the murine RMA lymphoma model (FIG. 15).

[5] = S-NGR-hTNF 100 pg in combination with melphalan 50 µg

αvβ3, sequence (P06756 31-889 limits assumed): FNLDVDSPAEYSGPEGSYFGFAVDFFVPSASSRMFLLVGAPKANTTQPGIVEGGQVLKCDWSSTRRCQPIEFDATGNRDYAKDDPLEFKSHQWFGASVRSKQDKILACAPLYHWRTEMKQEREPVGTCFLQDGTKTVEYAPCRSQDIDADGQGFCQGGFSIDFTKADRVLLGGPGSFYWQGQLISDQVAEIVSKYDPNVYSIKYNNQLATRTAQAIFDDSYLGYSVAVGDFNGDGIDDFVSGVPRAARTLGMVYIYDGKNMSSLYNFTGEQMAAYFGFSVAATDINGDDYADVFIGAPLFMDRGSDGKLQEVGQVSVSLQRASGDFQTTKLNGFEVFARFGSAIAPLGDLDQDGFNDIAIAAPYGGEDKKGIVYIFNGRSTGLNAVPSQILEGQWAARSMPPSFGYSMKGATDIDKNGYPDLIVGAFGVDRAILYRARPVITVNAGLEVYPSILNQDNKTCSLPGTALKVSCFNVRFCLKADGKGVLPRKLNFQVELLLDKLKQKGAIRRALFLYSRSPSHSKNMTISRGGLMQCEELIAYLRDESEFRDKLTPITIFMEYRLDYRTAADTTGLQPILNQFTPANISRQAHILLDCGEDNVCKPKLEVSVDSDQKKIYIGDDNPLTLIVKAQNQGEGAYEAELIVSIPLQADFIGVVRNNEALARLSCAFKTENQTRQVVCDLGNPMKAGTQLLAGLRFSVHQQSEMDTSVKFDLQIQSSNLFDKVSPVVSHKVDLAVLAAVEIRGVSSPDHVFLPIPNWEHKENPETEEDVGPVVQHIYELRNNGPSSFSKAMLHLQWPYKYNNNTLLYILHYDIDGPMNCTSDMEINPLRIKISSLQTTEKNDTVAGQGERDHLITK
αvβ3, sequence (P06756 891-1048 partner limits assumed): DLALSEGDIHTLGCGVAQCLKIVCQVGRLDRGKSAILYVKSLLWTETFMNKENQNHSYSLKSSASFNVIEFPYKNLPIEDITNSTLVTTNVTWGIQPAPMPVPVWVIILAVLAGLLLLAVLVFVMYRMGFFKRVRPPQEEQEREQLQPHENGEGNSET
αvβ3, sequence (P05106 27-788): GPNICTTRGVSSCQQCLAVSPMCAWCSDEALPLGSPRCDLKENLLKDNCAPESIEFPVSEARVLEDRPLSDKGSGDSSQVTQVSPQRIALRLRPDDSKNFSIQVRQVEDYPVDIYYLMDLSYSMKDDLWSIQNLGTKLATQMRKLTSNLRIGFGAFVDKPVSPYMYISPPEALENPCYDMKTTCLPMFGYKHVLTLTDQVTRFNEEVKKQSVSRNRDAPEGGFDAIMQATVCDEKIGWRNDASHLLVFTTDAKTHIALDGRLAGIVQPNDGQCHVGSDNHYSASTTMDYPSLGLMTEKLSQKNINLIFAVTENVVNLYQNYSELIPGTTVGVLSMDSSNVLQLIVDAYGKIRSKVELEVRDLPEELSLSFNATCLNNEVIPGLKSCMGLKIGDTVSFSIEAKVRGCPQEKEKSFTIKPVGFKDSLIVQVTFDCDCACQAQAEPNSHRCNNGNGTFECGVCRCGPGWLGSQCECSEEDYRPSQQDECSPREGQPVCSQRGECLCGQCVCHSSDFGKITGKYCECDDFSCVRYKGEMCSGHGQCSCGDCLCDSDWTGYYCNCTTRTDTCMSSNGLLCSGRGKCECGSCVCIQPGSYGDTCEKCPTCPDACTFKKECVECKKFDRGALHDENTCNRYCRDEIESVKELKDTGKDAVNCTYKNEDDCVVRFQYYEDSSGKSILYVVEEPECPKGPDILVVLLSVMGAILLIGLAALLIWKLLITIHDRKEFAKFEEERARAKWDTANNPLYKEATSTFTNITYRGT

Molecule: N[C@@H](Cc1ccc(N(CCCl)CCCl)cc1)C(=O)O [melphalan, reference compound]
- median survival (RMA-T lymphoma; melphalan 50 µg alone): ~28 days

Molecule: CNGRC (SEQ ID NO:5) (disulfide 1-5 (inferred); listed as Homo sapiens)
- deamidation half-life [1]: 4 to 5 h

Molecule: CisoDGRC (SEQ ID NO:41) (isoaspartate; disulfide cyclized; MOD_RES (1)..(1) Ciso or acetyl-Ciso or iso) [deamidation product of CNGRC]
- affinity for αvβ3 greater than αvβ5, αvβ6, αvβ8, and α5β1 (αvβ3): 10-100 fold

Molecule: S-NGR-hTNF: Human SCNGRCG-TNF fusion protein expressed in E. coli (SEQ ID NO:27/28)
- median survival (RMA-T lymphoma; [5]): 36.5 days
- toxicity of melphalan, judged from loss of animal weight (RMA-T lymphoma; [5]): without increasing its toxicity

Molecule: human NGR-TNF: CNGRCG fused to the human TNF sequence, tested in Phase II and III clinical studies
- disease control in previously treated patients ([2]; 0.8 µg/m^2, 1 h infusion): about half
- duration of disease control ([2]; triweekly cohort): 4.4 months
- duration of disease control ([2]; weekly cohort): 9.1 months
- complete responses [3]: 50%
- responses [3]: 75%

B1: NGR-TNF: Murine CNGRCG-TNF fusion protein, conventional first-generation conjugate used as comparator (protein)
chain: CNGRCGLRSSSQNSSDKPVAHVVANHQVEEQLEWLSQRANALLANGMDLKDNQLVVPADGLYLVYSQVLFKGQGCPDYVLLTHTVSRFAISYQEKVNLLSAVKSPCPKDTPEGAELKPWYEPIYLGGVFQLEKGDQLSAEVNLPKYLDFAESGQVYFGVIAL
- EA.hy926 cell adhesion to coated plates [4]: cell adhesion was observed
- toxicity (WEHI-164 fibrosarcoma): No evidence of toxicity
- tumor growth (WEHI-164 fibrosarcoma): delayed tumor growth to similar extent
- EC50 cytotoxic activity (L-M cells): very similar
- efficacy of melphalan in combination (RMA lymphoma): could enhance the efficacy of melphalan
